Laboratory results reported in patent US20070178448A1 (Scripps Research, published 2007).
Non-standard residues stand in square brackets, D forms with d. No end group written: not given here. Phe(4-Ac) = CC(=O)c1ccc(C[C@H](N)C(=O)O)cc1

Biological target: T1, streptavidin (UniProt P22629 37-163, limits assumed)
T1 construct: also called streptavidin coated microtiter plates (Pierce); strepavidin
Assay: phage capture on streptavidin coated wells, elution with 10 µM biotin, titer of input and output phage
Description: In a model phage selection experiment, wild-type phage and phage carrying the mutant SBP with p-azido-L-phenylalanine were exposed to streptavidin coated wells, followed by recovery of the bound phage. Titer of the recovered enriched phage following elution was used as a measure of the binding specificity of the page for the streptavidin.
Specifically, two wells from a streptavidin coated microtiter plate (Pierce) were blocked with 300 μL of 4% BSA in 1×PBS at 4° C. overnight. After washing, separate streptavidin coated wells were incubated with similar numbers of phage (each in 100 μL) of either M13KE-SBP prepared in TTS/RS 3 or M13KE wild type phage at room temperature for 2 hours and washed 10 times with 200 μL PBST. The bound phage was eluted from the plate solid support with 10 μM biotin 1×PBS, pH 7.4. The input and output phage were titered (see, FIG. 9).

T1 sequence (P22629 37-163 limits assumed): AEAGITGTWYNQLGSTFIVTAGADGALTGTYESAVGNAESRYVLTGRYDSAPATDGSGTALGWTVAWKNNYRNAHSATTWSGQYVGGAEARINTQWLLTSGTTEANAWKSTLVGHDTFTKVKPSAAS

B1: M13KE-SBP phage prepared in TTS/RS 3 in the presence of p-acetylphenylalanine 3 (streptavidin binding peptide AGXTLLAHPQ, X = p-acetyl-L-phenylalanine, as … (peptide)
chain: AG[Phe(4-Ac)]TLLAHPQ
modifications: not fully specified (C-terminus)
notes: also called M13KE-SBP phage prepared in TTS/p-acetylphenylalanine 3; M13KE-SBP prepared in TTS/RS 3; not shown: pIII minor coat protein of M13 filamentous phage (vector M13KE); peptide fused at its N-terminus after the signal peptid
For B1, the “recovery rate, fold over that of M13KE wild-type phage” value was 9000 fold.
